What all share (test): BLI; ND-BLI: biotinylated nanodiscs (15 nM) with reconstituted nanopores loaded on streptavidin (SAX) sensors; WDR5 in solution, 1 to 18 μM; 300 mM KCl, 20 mM Tris-HCl, 1 mg/mL BSA, 1 mM TCEP, pH 7.5; 24 °C; empty nanodiscs as reference
What all share (settings): both partners purified
Background: Biolayer interferometry detects binding as a change in optical thickness at a sensor tip.

Assay [1] deals with T1, WD40 repeat protein 5 truncation mutant lacking residues 1-22 (WDR5ΔN) (UniProt P61964 23-334).
Assay [2] addresses T1, WD40 repeat protein 5 truncation mutant …. The source holds these as a separate data set.
For assay [3] the target is unchanged. The source holds these as a separate data set.

In assay [1], MGDRGPEFELGTMLNPHGAARAEVYLRPAPAPA (other) [O(PA)3 nanopore sensor (adaptor O - MLL4Win - (PA)3 tether - tFhuA)] yielded a Kd of 3010 ± 940 nM. In assay [2], this molecule yielded a koff of 0.018 s⁻¹ and a kon of 6000 M⁻¹ s⁻¹.

For the molecule MGDRGPEFELGTMLNPHGAARAEVYLRGGSGGS (other) [O(GGS)2 nanopore sensor (adaptor O - MLL4Win - (GGS)2 tether - tFhuA)], the dissociation constant Kd in assay [1] amounted to 250 ± 50 nM. Further, in assay [3], the dissociation rate constant (koff) worked out at 0.0046 s⁻¹ and the kon came out at 19000 M⁻¹ s⁻¹.

In turn, MLNPHGAARAEVYLRGGSGGS (other) [(GGS)2 nanopore sensor without the peptide adaptor (MLL4Win - (GGS)2 tether - tFhuA)] came in with a dissociation constant Kd in assay [1] of 260 ± 30 nM. In assay [3], this molecule showed a koff of 0.0049 s⁻¹ and an association rate constant (kon) of 19000 M⁻¹ s⁻¹.

As usually defined, the Kd is the equilibrium constant for the complex coming apart. Higher therefore signals lower affinity. What is called koff is a measure of how fast the partners let go of each other. A low value points to a long-lived complex. Broadly, the kon is the second-order rate constant of association.

(Values after publication PMC10278182, “Evaluation of Nanopore Sensor Design Using Electrical and Optical Analyses” (ACS Nano, 2023).)
